Results: the supplement of paper PMC9112550, “Optimization of the antimicrobial peptide Bac7 by deep mutational scanning” (BMC Biology, 2022)

System: Escherichia coli TOP10
Assay: shrunken log2 fold change of peptide-encoding DNA abundance (4.5 h post-induction vs induction); higher = less antimicrobial activity (less host growth inhibition)
Conditions: time post-induction: 4.5 h; library: site-saturation at positions 5, 18, 19, 20
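Further: peptides expressed intracellularly from a pBAD plasmid library in pooled LB shake-flask culture, induced with 0.3% L-arabinose, DNA abundance read by NGS, three biological replicates, DESeq2 with apeglm shrinkage.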

| Sequence | shrunken log2 fold change |
| --- | --- |
| RRIRCRPPRLPRPRPRPNMSPRP | -0.204 |
| RRIRCRPPRLPRPRPRPIVGPRP | -0.477 |
| RRIRQRPPRLPRPRPRPVSLPRP | -0.131 |
| RRIRYRPPRLPRPRPRPHFRPRP | -0.444 |
| RRIRHRPPRLPRPRPRPGSKPRP | -0.00664 |
| RRIRPRPPRLPRPRPRPCYEPRP | -0.195 |
| RRIRCRPPRLPRPRPRPRMEPRP | 0.0253 |
| RRIRRRPPRLPRPRPRPMEAPRP | 0.0829 |
| RRIRYRPPRLPRPRPRPIHPPRP | -0.418 |
| RRIRMRPPRLPRPRPRPHAIPRP | 0.224 |
| RRIRHRPPRLPRPRPRPVKHPRP | 0.0596 |
| RRIRWRPPRLPRPRPRPVSVPRP | -0.258 |
| RRIRVRPPRLPRPRPRPYCVPRP | -0.125 |
| RRIRARPPRLPRPRPRPAQFPRP | 0.509 |
| RRIRKRPPRLPRPRPRPRRYPRP | 0.47 |
| RRIRFRPPRLPRPRPRPPWTPRP | 0.123 |
| RRIRIRPPRLPRPRPRPPGAPRP | 0.431 |
| RRIRTRPPRLPRPRPRPQEEPRP | -0.0236 |
| RRIRKRPPRLPRPRPRPDIGPRP | -0.0485 |
| RRIRGRPPRLPRPRPRPKFGPRP | 0.241 |
| RRIRFRPPRLPRPRPRPMHDPRP | -0.236 |
| RRIRHRPPRLPRPRPRPPDLPRP | 0.0765 |
| RRIRGRPPRLPRPRPRPDLPPRP | 0.921 |
| RRIRHRPPRLPRPRPRPPLYPRP | -0.151 |
| RRIRTRPPRLPRPRPRPVQKPRP | 0.296 |

| Sequence | shrunken log2 fold change |
| --- | --- |
| RRIRYRPPRLPRPRPRPMFAPRP | -0.117 |
| RRIRGRPPRLPRPRPRPKISPRP | 0.477 |
| RRIRERPPRLPRPRPRPSLKPRP | -0.217 |
| RRIRNRPPRLPRPRPRPYDDPRP | 0.00769 |
| RRIRCRPPRLPRPRPRPNGSPRP | -0.398 |
| RRIRHRPPRLPRPRPRPKMPPRP | -0.0334 |
| RRIRHRPPRLPRPRPRPFLVPRP | -0.106 |
| RRIRRRPPRLPRPRPRPHHMPRP | -0.217 |
| RRIRIRPPRLPRPRPRPTGRPRP | -0.0536 |
| RRIRTRPPRLPRPRPRPMPIPRP | -0.0197 |
| RRIRPRPPRLPRPRPRPFFDPRP | -0.12 |
| RRIRDRPPRLPRPRPRPMKSPRP | 0.0815 |
| RRIRERPPRLPRPRPRPQDGPRP | -0.113 |
| RRIRLRPPRLPRPRPRPVAEPRP | 0.396 |
| RRIRWRPPRLPRPRPRPMPWPRP | 0.0161 |
| RRIRWRPPRLPRPRPRPTLTPRP | 0.697 |
| RRIRHRPPRLPRPRPRPVCPPRP | -0.0334 |
| RRIRIRPPRLPRPRPRPEHGPRP | -0.0885 |
| RRIRYRPPRLPRPRPRPQKDPRP | -0.177 |
| RRIRQRPPRLPRPRPRPGAIPRP | 0.0781 |
| RRIRRRPPRLPRPRPRPRVDPRP | 0.00278 |
| RRIRWRPPRLPRPRPRPSVPPRP | 0.045 |
| RRIRERPPRLPRPRPRPPYFPRP | -0.441 |
| RRIRSRPPRLPRPRPRPGWGPRP | 0.291 |
| RRIRGRPPRLPRPRPRPRQTPRP | -0.144 |
